# Measurements: the Immune Epitope Database (IEDB)
# Experiments:
# Assay in all cases: IEDB peptide-MHC binding, purified MHC/competitive/radioactivity; ≥ and ≤ were set here for values at or beyond the usual limits of such assays
# Conditions in all cases: source organism: Bordetella pertussis
# HLA-B*35:01 = target: HLA-B*35:01
# HLA-B*44:03 = target: HLA-B*44:03
# HLA-B*53:01 = target: HLA-B*53:01
# HLA-B*57:01 = target: HLA-B*57:01
# HLA-B*07:02 = target: HLA-B*07:02
# HLA-A*02:01 = target: HLA-A*02:01
sequence,measurement,setting,value
AAESTFESY,IC50,HLA-B*35:01,44.6 µM
AEATQLVTA,IC50,HLA-B*44:03,2.18 µM
AESSEAMAA,IC50,HLA-B*44:03,7.54 µM
DASGQHRLW,IC50,HLA-B*53:01,25.6 µM
same,IC50,HLA-B*57:01,≥ 70.4 µM
FELGADHAV,IC50,HLA-B*44:03,≥ 78.2 µM
GAPAAVSVL,IC50,HLA-B*07:02,69.6 µM
HAEHEKDVR,IC50,HLA-B*35:01,69.9 µM
HVRGMLVPV,IC50,HLA-B*07:02,6.16 µM
IETGGARRF,IC50,HLA-B*44:03,22.1 µM
KAAKSVNLM,IC50,HLA-B*35:01,50.6 µM
KGPKLAMPW,IC50,HLA-B*57:01,4.87 µM
KPLADIAVI,IC50,HLA-B*53:01,15.7 µM
LPTHLYKNF,IC50,HLA-B*35:01,10.5 µM
PAPTAPPMP,IC50,HLA-B*53:01,53.4 µM
RGWSIFALY,IC50,HLA-B*57:01,1.05 µM
TLNASNLTL,IC50,HLA-A*02:01,4.46 µM
VEVSSPPPV,IC50,HLA-B*44:03,28.8 µM
VIDGQKVLA,IC50,HLA-A*02:01,35.2 µM
VSVKVAKKL,IC50,HLA-B*57:01,37.4 µM
YPALRAALI,IC50,HLA-B*53:01,9.5 µM
